According to PMC3949515, “Multi-PAS domain-mediated protein oligomerization of PpsR from Rhodobacter sphaeroides” (Acta Crystallographica Section D: Biological Crystallography, 2014):
Several values for one entry are separate records, joined by “and”; a condition that tells them apart may be missing. Equal entries are not always repeated.

Experiments:
[1] = biological target: PpsR_(Q-PAS1), PpsR variant comprising the glutamine-rich linker (Q-linker) and the PAS1 domain (Rhodobacter sphaeroides) (UniProt Q9S301); assay: crystal structure; PpsR_(Q-PAS1), 8 mg/ml, 100 mM sodium cacodylate pH 6.5, 1.9% PEG 3000, 200 mM MgCl2, 293 K; one chain in the asymmetric unit, dimer by a crystallographic dyad; 1.65 Å
[2] = biological target: PpsR_(N-Q-PAS1), PpsR variant comprising the N-terminal domain, the Q-linker and the PAS1 domain (Rhodobacter sphaeroides) (UniProt Q9S301); assay: SEC-MALS; Superdex 200 10/300 GL, buffer D (10 mM CHES pH 9.0, 150 mM NaCl, 5% glycerol), 400 µl of a 20 µM protein solution loaded, 0.5 ml/min
[3] = biological target: PpsR_(N-Q-PAS1), PpsR variant comprising the N-terminal domain, the Q-linker and the PAS1 domain (Rhodobacter sphaeroides) (UniProt Q9S301); assay: crystal structure; PpsR_(N-Q-PAS1), 10 mg/ml, 1.6 M ammonium sulfate, 100 mM MES pH 6.5, 10 mM L-cysteine, 4% 1,4-dioxane, 293 K; dimer in the asymmetric unit; 2.2 Å
[4] = biological target: PpsR_(N-Q-PAS1), PpsR variant comprising the N-terminal domain, the Q-linker and the PAS1 domain (Rhodobacter sphaeroides) (UniProt Q9S301); assay: MST; dimer to monomers, KD based on the total monomer concentration; Monolith NT.115, unlabelled protein titrated (1:2 dilution series) into NT-647-labelled protein (10 nM for PpsR_(N-Q-PAS1)), buffer D, three experiments averaged
[5] = biological target: the molecule itself; assay: MST; tetramer to dimers, KD based on the total dimer concentration; Monolith NT.115, unlabelled protein titrated (1:2 dilution series) into 12.5 nM NT-647-labelled protein, buffer D, three experiments averaged
[6] = biological target: the molecule itself; assay: SEC-MALS; Superdex 200 10/300 GL, buffer D (10 mM CHES pH 9.0, 150 mM NaCl, 5% glycerol), 400 µl of a 20 µM protein solution loaded, 0.5 ml/min
[7] = biological target: the molecule itself; assay: crystal structure; PpsR_(ΔHTH), 30 mg/ml, 1 M ammonium sulfate, 100 mM Tris-HCl pH 8.5, 6% xylitol, 12% glycerol, 1% dioxane, 293 K; four chains in the asymmetric unit, octamer by a crystallographic twofold axis; 2.8 Å

PpsR_(Q-PAS1), PpsR variant comprising the glutamine-rich linker (Q-linker) and the PAS1 domain (from UniProt Q9S301 123-257) (domain or fragment)
stoichiometry N [1]: 2

PpsR_(N-Q-PAS1), PpsR variant comprising the N-terminal domain, the Q-linker and the PAS1 domain (from UniProt Q9S301 1-257) (domain or fragment)
stoichiometry N [2]: 2
stoichiometry N [3]: 2
Kd [4]: 250 nM

B1: PpsR_(full), full-length transcription factor PpsR (photopigment suppression) from Rhodobacter sphaeroides (natural protein, UniProt Q9S301 1-464, looked up)
chain: MLAGGSLPSLAPDLVRDLIATAADISLLVSQEGVVREVMANPHHPSFGQLSEWEGRPLEEVLTAESVAKFRLRSEGLEPGRGSVAVELNHIDPRSFEFPIRYILHRLPADRSILMLGRDLRPIAEVQQQLVAAQLAMERDYETQREMETRYRVVLDVSRDPMVLVSMSTGRIVDLNSAAGLLLGGVRQDLLGAAIAQEFEGRRRGEFMETMTNLAATESAAPVEVLARRSQKRLLVVPRVFRAAGERLLLCQIDPADATQPVGDELSENLARLYHEGVDGIVFSDADGTIRGANEAFLNMTDSSSLAAIRGRSIADFLARGSVDLRVLIDSVRRTGQLRLYATRLTTDFAGQIAAEISATWLDDRERPLLVLVVRDTSRADTMRRPVPATGVIDEPARNVMELVGNSTLKDIVAETTDVVEKMCIETALELTRNNRVAAAEMLSLSRQSLYVKLRKFGLLNKDE
notes: PpsR from Rhodobacter sphaeroides, UniProt Q9S301, full-length protein; gene synthesized with codon optimization for E. coli, cloned in pETM-11; In MST one copy was randomly labelled at amine positions with NT-647 red fluorescent dye (about one label per monomer); In solution a dimer-tetramer equilibrium; source: E. coli BL21 (DE3), purified (Ni-NTA, TEV cleavage, HiTrap Heparin, Superdex 200); …
Kd [5]: 900 ± 300 nM

B2: PpsR_(ΔHTH), triple PAS domain construct of PpsR (N-domain, Q-linker, PAS1, PAS2) lacking the C-terminal HTH motif (domain or fragment, Rhodobacter sphaeroides, UniProt Q9S301 1-379, looked up)
chain: MLAGGSLPSLAPDLVRDLIATAADISLLVSQEGVVREVMANPHHPSFGQLSEWEGRPLEEVLTAESVAKFRLRSEGLEPGRGSVAVELNHIDPRSFEFPIRYILHRLPADRSILMLGRDLRPIAEVQQQLVAAQLAMERDYETQREMETRYRVVLDVSRDPMVLVSMSTGRIVDLNSAAGLLLGGVRQDLLGAAIAQEFEGRRRGEFMETMTNLAATESAAPVEVLARRSQKRLLVVPRVFRAAGERLLLCQIDPADATQPVGDELSENLARLYHEGVDGIVFSDADGTIRGANEAFLNMTDSSSLAAIRGRSIADFLARGSVDLRVLIDSVRRTGQLRLYATRLTTDFAGQIAAEISATWLDDRERPLLVLVVRDTSR
notes: PpsR from Rhodobacter sphaeroides, UniProt Q9S301; the model ends at 378 with the C-terminal arginine disordered; The forward primer 1_fw introduces ATG GGA before the first codon of PpsR; In MST one copy was randomly labelled at amines with NT-647; A selenomethionine-substituted form was also crystallized for phasing; source: E. coli BL21 (DE3), purified (Ni-NTA, TEV cleavage, Superdex 200); …
stoichiometry N [6]: 2
Kd [5]: 900 ± 200 nM
stoichiometry N [7]: 4 and 8
